In publication PMC6368608 (Nature Communications, 2019):

What was measured:
Settings in all cases: both partners purified
C.CH505TF gp120 [1] = target: T1, C.CH505TF gp120 (HIV-1 clade C, CH505 transmitted/founder, UniProt M4M0W3, strain); assay: SPR
C.CH505TF gp120 [2] = target: T2, C.CH505TF gp120 (HIV-1 clade C, CH505 transmitted/founder, UniProt M4M0W3, strain); assay: SPR; BIAcore T200; […]) 5 min at 50 µL/min, 10 min dissociation; […]; global 1:1 Langmuir fit; […]
C.CH505TF gp120 [3] = target: T1, C.CH505TF gp120; assay: SPR; remark: listed apart in the source
C.CH505TF gp120 [4] = target: T2, C.CH505TF gp120; assay: SPR; BIAcore T200; […]) 5 min at 50 µL/min, 10 min dissociation; […]; global 1:1 Langmuir fit; […]; remark: listed apart in the source

Binder | Kd (C.CH505TF gp120 [2]) [nM] | koff (C.CH505TF gp120 [3]) [s⁻¹] | kon (C.CH505TF gp120 [3]) [M⁻¹ s⁻¹] | other results
CH103 lineage intermediate I3 (antibody, V domains shown) VH: QVQLQESGPGLVKSSETLSLTCTVSGGSMGGYYWSWLRQSPVKGLEWIGYIFHTGHTNYNPSLESRVTVSVDTSENQFSLRLRSVTAADTAVYYCASLPRGQLVNAFFDNWGQGTLVTVAS VL: not shown | – | – | – | koff (C.CH505TF gp120 [1]): 0.000234 s⁻¹; kon (C.CH505TF gp120 [1]): 24500 M⁻¹ s⁻¹
I3 (CH103 lineage intermediate) (antibody, V domains shown) VH: QVQLQESGPGLVKSSETLSLTCTVSGGSMGGYYWSWLRQSPVKGLEWIGYIFHTGHTNYNPSLESRVTVSVDTSENQFSLRLRSVTAADTAVYYCASLPRGQLVNAFFDNWGQGTLVTVAS VL: not shown | 9.53 | – | – | –
CH103-S14P (antibody, V domains shown) V domain 1: QVQLQESGPGVVKPSETLSLTCTVSGGSMGGTYWSWLRLSPGKGLEWIGYIFHTGETNYSPSLKGRVSISVDTSEDQFSLRLRSVTAADTAVYFCASLPRGQLVNAYFRNWGRGSLVSVTA V domain 2: YELTQPPSVSVSPGQTATITCSGASTNVCWYQVKPGQSPEVVIFENYKRPSGIPDRFSGSKSGSTATLTIRGTQAIDEADYYCQVWDSFSTFVFGSGTQVTVL | – | 0.000262 | 5200 | Kd (C.CH505TF gp120 [3]): 50 nM
CH103-S14P/G30S (antibody, V domains shown) V domain 1: QVQLQESGPGVVKPSETLSLTCTVSGGSMSGTYWSWLRLSPGKGLEWIGYIFHTGETNYSPSLKGRVSISVDTSEDQFSLRLRSVTAADTAVYFCASLPRGQLVNAYFRNWGRGSLVSVTA V domain 2: YELTQPPSVSVSPGQTATITCSGASTNVCWYQVKPGQSPEVVIFENYKRPSGIPDRFSGSKSGSTATLTIRGTQAIDEADYYCQVWDSFSTFVFGSGTQVTVL | – | 0.0003 | 4000 | Kd (C.CH505TF gp120 [3]): 70 nM
CH103 UCA (antibody, V domains shown, also called unmutated common ancestor of the CH103 lineage) VH: QVQLQESGPGLVKPSETLSLTCTVSGGSISSYYWSWIRQPPGKGLEWIGYIYYSGSTNYNPSLKSRVTISVDTSKNQFSLKLSSVTAADTAVYYCASLPRGQLVNAYFDYWGQGTLVTVSS VL: not shown | – | – | 23500 | –
CH103 UCA-P14S (antibody, V domains shown) VH: QVQLQESGPGLVKSSETLSLTCTVSGGSISSYYWSWIRQPPGKGLEWIGYIYYSGSTNYNPSLKSRVTISVDTSKNQFSLKLSSVTAADTAVYYCASLPRGQLVNAYFDYWGQGTLVTVSS VL: not shown | – | 0.0112 | 30000 | –
UCA-S30G (antibody, V domains shown) VH: QVQLQESGPGLVKPSETLSLTCTVSGGSIGSYYWSWIRQPPGKGLEWIGYIYYSGSTNYNPSLKSRVTISVDTSKNQFSLKLSSVTAADTAVYYCASLPRGQLVNAYFDYWGQGTLVTVSS VL: not shown | 400 | – | – | –
CH103 UCA (antibody, V domains shown, also called unmutated common ancestor of the CH103 lineage; wild-type UCA) VH: QVQLQESGPGLVKPSETLSLTCTVSGGSISSYYWSWIRQPPGKGLEWIGYIYYSGSTNYNPSLKSRVTISVDTSKNQFSLKLSSVTAADTAVYYCASLPRGQLVNAYFDYWGQGTLVTVSS VL: not shown | 430 | – | – | koff (C.CH505TF gp120 [4]): 0.0101 s⁻¹; kon (C.CH505TF gp120 [4]): > 10000 M⁻¹ s⁻¹
CH103 UCA-S30G (antibody, V domains shown) VH: QVQLQESGPGLVKPSETLSLTCTVSGGSIGSYYWSWIRQPPGKGLEWIGYIYYSGSTNYNPSLKSRVTISVDTSKNQFSLKLSSVTAADTAVYYCASLPRGQLVNAYFDYWGQGTLVTVSS VL: not shown | – | 0.0117 | 29600 | –
CH103 UCA-S30G/S31G (antibody, V domains shown) VH: QVQLQESGPGLVKPSETLSLTCTVSGGSIGGYYWSWIRQPPGKGLEWIGYIYYSGSTNYNPSLKSRVTISVDTSKNQFSLKLSSVTAADTAVYYCASLPRGQLVNAYFDYWGQGTLVTVSS VL: not shown | – | 0.011 | 25200 | –
UCA-P14S (antibody, V domains shown) VH: QVQLQESGPGLVKSSETLSLTCTVSGGSISSYYWSWIRQPPGKGLEWIGYIYYSGSTNYNPSLKSRVTISVDTSKNQFSLKLSSVTAADTAVYYCASLPRGQLVNAYFDYWGQGTLVTVSS VL: not shown | 370 | – | – | –
UCA-S30G/S31G (antibody, V domains shown) VH: QVQLQESGPGLVKPSETLSLTCTVSGGSIGGYYWSWIRQPPGKGLEWIGYIYYSGSTNYNPSLKSRVTISVDTSKNQFSLKLSSVTAADTAVYYCASLPRGQLVNAYFDYWGQGTLVTVSS VL: not shown | 440 | – | – | –
